Assay results published in US20260028608A1.

B1: N240, a variant IdeZ polypeptide of the invention (enzyme)
chain: MDDYQRNATEAYAKEVPHQITSVWTKGVTPPEQFTQGEDVIHAPYLAHQGWYDITKAFNGKDDLLCGAATAGNMLHWWFDQNKTEIEAYLSKHPEKQKIIFRNQELFDLKAAIDTKDSQTNSQLFNYFRDKAFPNLSARQLGVMPDLVLDMFINGYYLNVFKTQSTDVNRPYQDKDKRGGIFDAVFTRGNQTTLLTARHDLKNKGLNDISTIIKQELTEGRALALSHTYANVSISHVINLWGADFNAEGNLEAIYVTDSDANASIGMKKYFVGINAHGHVAISAKKIEGENIGAQVLGLFTLSSGKDIWQKLS
B2: pCART239, a variant IdeZ polypeptide of the invention (enzyme)
chain: MDDYQRNATEAYAKEVPHQITSVWTKGVTPPEQFTQGEDVIHAPYLAHQGWYDITKAFNGKDDLLCGAATAGNMLHWWFDQNKTEIEAYLSKHPEKQKIIFRNQELFDLKAAIDTKDSQTNSQLFNYFRDKAFPNLSARQLGVMPDLVLDMFINGYYLNVFKTQSTDVNRPYQDKDKRGGIFDAVFTRGNQTTLLTARHDLKNKGLNDISTIIKQELTEGRALALSHTYANVSISHVINLWGADFNAEGNLEAIYVTDSDANASIGMKKYFVGINAHGHVAISAKKIEGENIGAQVLGLFTLSSGKDIWQKLSGGGHHHHHH

Assays:
[1] = target: IgG in human serum pool from 100 individuals; assay: cell-based or functional assay
[2] = target: Human IgG (fixed concentration, MSD potency assay of Example 4); assay: cell-based or functional assay

| Binder | Relative Potency (%) In Serum, Plate 1 (MSD, from EC50; reference IdeS) [1] | Relative Potency (%) In Serum, Plate 1 (MSD, from EC50; reference IdeS; separate dilutions) [1] | Relative Potency (%) In Serum, Plate 2 (MSD, from EC50; reference IdeS) [1] | Relative Potency (%) In Serum, Plate 2 (MSD, from EC50; reference IdeS; separate dilutions) [1] | Relative Potency (%) In serum, Mean value (MSD, from EC50; reference IdeS) [1] | Relative Potency (%) In serum, Mean value (MSD, from EC50; reference IdeS; separate dilutions) [1] | mean relative potency (EC50Ref/EC50Test x 100%), MSD potency assay of IgG cleavage [2] | enzyme concentration at which all IgG were converted to scIgG, serum pool with 0.1 mg/ml pCART243 (SDS-PAGE) [1] |
| --- | --- | --- | --- | --- | --- | --- | --- | --- |
| B1 | 151% | 137% | 132% | 146% | 142% | 142% | 300% | – |
| B2 | – | – | – | – | – | – | – | 0.5 µg/ml |
